What all share (assay): EMSA; no ATP, 5 mM Mg2+; 35 mM Tris-HCl pH 7.5, 1 mM DTT, 5 mM MgCl2, 60 mM KCl, 0.1 mg/ml BSA, no ATP, 30 min at 30 C; 5 nM ssDNA
Common to all, as to conditions: protein: recombinant; tags: N-terminal superfolder GFP; Ni-NTA purified; label: 5' Alexa647
Background: In EMSA bound probe runs differently from free probe, usually more slowly.

One data set has as its target T1, GFP-Pif1 E724A (Saccharomyces cerevisiae, UniProt P07271 40-859, E724A).
T1 sequence: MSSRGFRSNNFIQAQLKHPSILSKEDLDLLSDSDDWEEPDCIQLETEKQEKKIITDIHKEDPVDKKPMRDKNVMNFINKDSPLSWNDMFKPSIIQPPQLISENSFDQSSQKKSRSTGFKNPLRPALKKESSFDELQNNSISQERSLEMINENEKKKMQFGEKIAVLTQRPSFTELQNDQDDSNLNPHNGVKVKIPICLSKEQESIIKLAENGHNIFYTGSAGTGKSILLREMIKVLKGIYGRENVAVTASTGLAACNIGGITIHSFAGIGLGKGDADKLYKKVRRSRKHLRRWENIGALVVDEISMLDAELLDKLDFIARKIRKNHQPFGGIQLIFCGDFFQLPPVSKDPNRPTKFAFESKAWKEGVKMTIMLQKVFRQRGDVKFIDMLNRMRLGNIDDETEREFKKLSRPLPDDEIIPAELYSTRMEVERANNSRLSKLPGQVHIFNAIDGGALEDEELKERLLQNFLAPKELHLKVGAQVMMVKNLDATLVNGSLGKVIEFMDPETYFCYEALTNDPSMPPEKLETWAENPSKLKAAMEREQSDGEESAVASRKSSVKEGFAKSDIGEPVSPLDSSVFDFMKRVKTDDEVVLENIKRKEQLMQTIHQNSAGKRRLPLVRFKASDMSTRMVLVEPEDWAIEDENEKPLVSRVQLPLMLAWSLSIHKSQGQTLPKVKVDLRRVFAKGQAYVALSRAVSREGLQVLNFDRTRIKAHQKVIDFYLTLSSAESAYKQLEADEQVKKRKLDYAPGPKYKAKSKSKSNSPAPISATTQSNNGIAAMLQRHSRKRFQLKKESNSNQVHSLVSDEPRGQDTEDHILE

A further data set addresses T2, GFP-Pif1 K312A (Saccharomyces cerevisiae, UniProt P07271 40-859, K312A).
T2 sequence: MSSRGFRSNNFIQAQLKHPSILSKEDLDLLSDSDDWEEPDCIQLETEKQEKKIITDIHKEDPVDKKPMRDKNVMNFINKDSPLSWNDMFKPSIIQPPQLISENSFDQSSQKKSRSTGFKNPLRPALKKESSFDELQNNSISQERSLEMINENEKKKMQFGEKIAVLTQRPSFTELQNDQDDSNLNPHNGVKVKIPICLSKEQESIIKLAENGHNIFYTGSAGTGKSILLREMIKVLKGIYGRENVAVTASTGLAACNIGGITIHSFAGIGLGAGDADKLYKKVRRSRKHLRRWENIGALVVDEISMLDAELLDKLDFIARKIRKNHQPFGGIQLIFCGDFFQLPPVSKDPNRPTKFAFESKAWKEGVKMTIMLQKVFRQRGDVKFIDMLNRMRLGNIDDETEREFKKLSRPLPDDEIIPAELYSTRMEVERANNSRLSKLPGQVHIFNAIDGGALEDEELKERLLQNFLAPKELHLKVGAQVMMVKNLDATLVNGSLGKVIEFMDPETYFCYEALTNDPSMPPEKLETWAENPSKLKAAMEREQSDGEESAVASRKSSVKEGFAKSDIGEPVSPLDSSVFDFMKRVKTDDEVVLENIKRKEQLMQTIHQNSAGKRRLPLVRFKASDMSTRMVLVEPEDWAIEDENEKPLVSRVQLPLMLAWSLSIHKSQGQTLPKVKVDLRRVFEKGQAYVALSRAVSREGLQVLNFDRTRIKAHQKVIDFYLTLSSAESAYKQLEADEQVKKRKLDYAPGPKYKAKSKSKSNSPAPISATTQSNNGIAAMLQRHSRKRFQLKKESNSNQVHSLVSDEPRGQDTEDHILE

A further data set concerns the target T3, GFP-Pif1 G291P (Saccharomyces cerevisiae, UniProt P07271 40-859, G291P).
T3 sequence: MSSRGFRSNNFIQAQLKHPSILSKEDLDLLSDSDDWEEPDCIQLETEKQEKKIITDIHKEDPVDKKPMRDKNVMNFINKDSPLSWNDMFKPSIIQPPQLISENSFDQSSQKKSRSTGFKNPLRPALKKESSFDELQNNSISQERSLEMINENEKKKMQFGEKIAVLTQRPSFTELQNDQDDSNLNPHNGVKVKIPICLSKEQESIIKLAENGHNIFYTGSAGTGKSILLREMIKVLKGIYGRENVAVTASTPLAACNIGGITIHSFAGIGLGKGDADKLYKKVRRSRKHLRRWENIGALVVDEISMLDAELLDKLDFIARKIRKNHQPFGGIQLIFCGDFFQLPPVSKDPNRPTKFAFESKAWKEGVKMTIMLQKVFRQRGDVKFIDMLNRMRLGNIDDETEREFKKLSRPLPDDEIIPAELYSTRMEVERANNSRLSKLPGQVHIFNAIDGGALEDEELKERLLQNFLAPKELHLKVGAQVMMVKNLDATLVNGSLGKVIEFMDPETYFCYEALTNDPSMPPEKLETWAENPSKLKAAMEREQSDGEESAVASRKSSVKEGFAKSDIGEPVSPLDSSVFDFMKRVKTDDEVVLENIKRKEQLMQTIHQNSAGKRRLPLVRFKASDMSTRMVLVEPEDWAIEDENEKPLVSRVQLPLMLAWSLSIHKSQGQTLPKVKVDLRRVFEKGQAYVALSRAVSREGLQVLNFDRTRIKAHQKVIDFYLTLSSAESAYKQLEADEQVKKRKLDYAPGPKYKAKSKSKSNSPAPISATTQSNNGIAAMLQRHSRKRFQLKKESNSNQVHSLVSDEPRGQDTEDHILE

For the molecule GCTAGCAGTAGCCAGCATCGAACGTACGATCGGTAACGTA (ssDNA) [40-nt ssDNA], the Kd (usually the equilibrium constant for the complex coming apart) with GFP-Pif1 E724A turned out to be 19 nM; in the data set with GFP-Pif1 K312A it was 40 nM; with GFP-Pif1 G291P it was 61.4 ± 15.8 nM.

These data come from paper PMC10279920, “Single-molecule visualization of Pif1 helicase translocation on single-stranded DNA” (The Journal of Biological Chemistry, 2023).
